Data reported in PMC11094138, “The NTE domain of PTENα/β promotes cancer progression by interacting with WDR5 via its SSSRRSS motif” (Cell Death & Disease, 2024).

B1: PTENα-NTE^116–148 peptide (peptide)
peptide: SSRRSSHYPAAVQSQAAAERGASATAKSRAISI
notes: PTENα (PTEN-L), the N-terminally extended variant of human PTEN (576 residues); residues 116–148 of its N-terminal extension; also called synthetic PTENα-NTE^116–148 peptide; source: synthetic peptide
B2: MLL1 WIN motif MLL1^3762–3772 (peptide)
peptide: GSARAEVHLRK
notes: source: lyophilized peptide (Shanghai Apeptide or GL Biochem)
B3: MLL1^3762–3772_A3764R (peptide)
peptide: GSRRAEVHLRK
notes: as for B2

Tests used:
WDR5^22–334 [1] = target: T1, WDR5^22–334 (human, UniProt P61964 22-334); test: ITC; competitive: PTENα-NTE^116–148 or PTENα-NTE^1–173 titrated into a 1:1 molar mixture of WDR5^22–334 and H3 1–15; 25 °C; 20 mM Tris-HCl pH 7.5, 150 mM NaCl; settings: both partners purified
WDR5^22–334 [2] = target: T1, WDR5^22–334; test: ITC; WDR5 (50 µM) in the cell, peptide or protein (750 µM) in the syringe, 20 injections; 25 °C; 20 mM Tris-HCl pH 7.5, 150 mM NaCl; single-site model; iTC-200; settings: both partners purified

Binder | Kd against a 1:1 mixture of WDR5^22–334 and H3 1–15 (WDR5^22–334 [1]) | Kd (WDR5^22–334 [2]) | binding result (WDR5^22–334 [2])
B1 | 32 ± 3 µM | 3.8 µM | 
B2 |  |  | binds
B3 |  |  | binds
